Source: article PMC3404986, “Pyridoxal 5′-Phosphate Is a Slow Tight Binding Inhibitor of E. coli Pyridoxal Kinase” (PLoS ONE, 2012)

Legend:
Cc1ncc(CO)c(C=O)c1O = test system: T1, Cc1ncc(CO)c(C=O)c1O; experiment: purified protein; assay type: biochemical, Escherichia coli; conditions: MgATP co-substrate, 20 mM K-HEPES pH 7.5, 0.2 mM MgCl2, 37°C
T1 construct: full length, recombinant from E. coli; wild type untagged (as previously described); K229Q His-tagged (C-terminus; pET28a NdeI/EcoRI)

[1] = test system: T2, Nc1ncnc2c1ncn2[C@@H]1O[C@H](COP(=O)(O)OP(=O)(O)OP(=O)(O)O)[C@@H](O)[C@H]1O; experiment: purified protein; assay type: biochemical, Escherichia coli; conditions: PL co-substrate, 20 mM K-HEPES pH 7.5, 0.2 mM MgCl2, 37°C
T2 construct: full length, recombinant from E. coli; wild type untagged (as previously described); K229Q His-tagged (C-terminus; pET28a NdeI/EcoRI)

Row | Substance | Km (Cc1ncc(CO)c(C=O)c1O) [µM] | kcat (Cc1ncc(CO)c(C=O)c1O) [min⁻¹] | Km [1] [µM] | kcat [1] [min⁻¹] | Km (Cc1ncc(CO)c(C=O)c1O; His-tagged) [µM] | kcat (Cc1ncc(CO)c(C=O)c1O; His-tagged) [min⁻¹] | Km ([1]; His-tagged) [µM] | kcat ([1]; His-tagged) [min⁻¹]
1 | ePL kinase (E. coli pyridoxal kinase 1, PL kinase1) (Escherichia coli K-12) | 60 | 240 | 460 | 240 |  |  |  | 
2 | ePL kinase (E. coli pyridoxal kinase 1, PL kinase1) (Escherichia coli K-12; K229Q) |  |  |  |  | 384 | 26 | 122 | 26
